Numbered stars: 1 amine (or outer) side, 2 acyl side, 3 side chain; on linkers, the order of the positions; unused ones are H or OH. Bridge positions count the residues as written; N and C are the ends. Square brackets hold non-standard residues; d marks the D form. Peptide text beside a SMILES is read from it. * marks the point of attachment. Ala(piperidin-4-yl) = O=C([C@H](CC1CCN([*:3])CC1)N[*:1])[*:2]; DOTA = O=C(O)CN1CCN(CC(=O)O)CCN(CC(=O)*)CCN(CC(=O)O)CC1; Phe(4-CF3) = N[C@@H](Cc1ccc(C(F)(F)F)cc1)C(=O)O; Ala(morpholin-4-yl) = N[C@@H](CN1CCOCC1)C(=O)O; Trp(5-F) = N[C@@H](Cc1c[nH]c2ccc(F)cc12)C(=O)O; Trp(7-aza) = N[C@@H](Cc1c[nH]c2ncccc12)C(=O)O; Pro(trans-4-F) = O=C(O)[C@@H]1C[C@@H](F)CN1; 2Nal = N[C@@H](Cc1ccc2ccccc2c1)C(=O)O; Nva(3-Et) = CCC(CC)[C@H](N)C(=O)O; 4Pal = N[C@@H](Cc1ccncc1)C(=O)O; CH2 = C([*:1])[*:2]
T1: human DLL3 (Homo sapiens, UniProt Q9NYJ7)
T1 sequence (Q9NYJ7 27-618): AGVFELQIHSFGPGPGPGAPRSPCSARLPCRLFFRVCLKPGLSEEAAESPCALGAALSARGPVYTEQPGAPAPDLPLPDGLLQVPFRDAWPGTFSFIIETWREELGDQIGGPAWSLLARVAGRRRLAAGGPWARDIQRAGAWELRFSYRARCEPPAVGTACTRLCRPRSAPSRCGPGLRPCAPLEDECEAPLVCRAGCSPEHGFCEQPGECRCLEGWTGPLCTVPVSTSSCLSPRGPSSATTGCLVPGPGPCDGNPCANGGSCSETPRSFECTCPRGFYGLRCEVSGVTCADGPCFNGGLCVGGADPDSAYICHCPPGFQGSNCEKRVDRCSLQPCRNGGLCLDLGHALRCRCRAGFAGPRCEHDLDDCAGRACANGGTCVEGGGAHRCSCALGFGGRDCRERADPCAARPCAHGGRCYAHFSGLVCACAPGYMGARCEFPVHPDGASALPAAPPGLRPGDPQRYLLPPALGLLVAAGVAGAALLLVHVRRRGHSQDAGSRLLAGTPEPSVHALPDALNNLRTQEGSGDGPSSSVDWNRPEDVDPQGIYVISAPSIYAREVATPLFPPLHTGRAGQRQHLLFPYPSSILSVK

T2: DLL3 on SHP-77 cells (human, UniProt Q9NYJ7 27-618)
T2 construct: SHP-77 cells are human-derived, non-engineered SCLC cells
T2 sequence: T1 sequence (Q9NYJ7 27-618)

T3: DLL3 on CT26.DLL3 cells (Homo sapiens (Human), UniProt Q9NYJ7 27-618)
T3 construct: CT26.DLL3 are engineered cells to express DLL3
T3 sequence: T1 sequence (Q9NYJ7 27-618)


Legend:
human DLL3 = molecular target: T1, human DLL3; test: Affinity determination by Surface Plasmon Resonance (SPR); assay type: binding; settings: 25° C., biotinylated human DLL3 immobilized on streptavidin sensor chip, 1:1 binding model; read-out: SPR KD
Method in brief: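 Biotinylated human DLL3 was captured on a streptavidin chip with a reference surface. Compounds at several concentrations were injected at 100 μL/minute in phosphate buffer (137 mM NaCl, 2.7 mM KCl, 0.05% P20, 2% DMSO). Affinity and kinetics came from 1:1 model fits of the sensorgrams.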

SHP-77 cells = test: Cell binding (total uptake) of [177Lu]Lu-test peptide, SHP-77 cells; assay type: cell-based; settings: SHP77 cells, 1 hour at 37° C., bound fraction
Procedure: [^177Lu]LuCl3 was received from venders in HCl solution. For every mCi of [^177Lu]LuCl3 added to the reaction vial (1.5 mL Eppendorf vial), ammonium acetate buffer (0.2 M, pH 4.9, 100 μL, containing 1% w/v ascorbic acid and 6% v/v ethanol) and peptide conjugate (1 nmol). A peptide conjugate of the present disclosure is also referred to herein as a “chelator-peptide”. The pH of the solution was determined to be approximately 5 by using pH strips. The reaction vial was incubated at 80° C., 700 RPM for 17-20 minutes. A sample from the reaction was analyzed by RP-HPLC using an Agilent Infinity II 1260 HPLC to determine reaction completion and radiochemical purity of [^177Lu]Lu-chelator-peptide. HPLC conditions: Waters XBridge BEH C18 Column, 130 Å, 3.5 um, 4.6 mm×250 mm; mobile phase: Solvent A=water (with 0.1% formic acid), solvent B=acetonitrile (with 0.1% formic acid). Gradients: 25-45% B in 10 minutes, 45-65% B in 12 minutes, 65-90% in 6 minutes at a flow rate of 0.5 mL/minute. Required amounts of the product was formulated in 1% PBSA for cell studies.
(§1) The study was conducted using SHP-77, CT26.WT, and CT26.DLL3 cells (Table 7) Adherent cell studies: The cells were cultured in appropriate culture media (20 mL) in tissue culture treated T150 flasks at 37° C. and 5% CO2. Adherent cells were detached (60-70% confluent) using 5 mL Versene at 37° C. for 3 minutes. After confirming the viability using countess and count of detached cells using Trypan blue, the cells were centrifuged at 4° C. for 5 minutes (1,000 rpm). The cell pellet obtained was washed once with PBS and resuspended in 1% PBSA to obtain the desired cell concentration (5-25 million cells/mL).
Suspension cell studies: The cells were cultured in appropriate culture media (20 mL) in tissue culture treated T150 flasks at 37° C. and 5% CO2. After confirming the viability and count of detached cells using Trypan blue, the cells were centrifuged at 4° C. for 5 minutes (1,000 rpm). The cell pellet obtained was washed once with PBS and resuspended in 1% PBSA to obtain the desired cell concentration (5-25 million cells/mL).
Cell numbers used for the assay were in the range of 5 million cells/condition −25 million cells/condition.
Total uptake: Cells were incubated with 300 μL (0.8 μCi) of the incubation buffer (containing radiolabeled peptide [^177Lu] Lu-test peptide) for 1 hour at 37° C. (Table 8). Post incubation, the cells were pelleted and washed 2 times using cold PBS+1% BSA. The supernatant and washes were combined and counted together as “unbound fraction” in a gamma counter. The cells were then resuspended in 300 μL of 1% PBS+1% BSA and counted in the gamma counter as “bound fraction”.
In these Tables, “A” represents %≤25; “B” represents 25<%≤50; “C” represents %>50.

SHP-77 tumors = test: Ex vivo biodistribution of radiolabeled peptides in nude mice bearing SHP-77 tumors; settings: [177Lu]Lu labelling, nude mice bearing SHP-77 tumors (n = 3), 24 hours post-injection
Method in brief: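 Nude mice bearing SHP-77 xenografts (200-400 mm^3) or tumor-naïve mice (5-7 weeks) received an intravenous tail-vein bolus of [^177Lu]Lu-peptide and were euthanized at pre-set time points. Tissues were weighed and gamma-counted, with counts decay-corrected to injection time. Values are % IA/g per tissue from the injected activity of each mouse.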

DLL3 on SHP-77 cells = molecular target: T2, DLL3 on SHP-77 cells; test: 177Lu-peptide bound to SHP-77 cells, gamma counting; letter grade, key in paragraph 629
Procedure: as §1
(§2) Total uptake: Cells were incubated with 300 μL (0.8 μCi) of the incubation buffer (containing radiolabeled peptide [¹⁷⁷Lu] Lu-test peptide) for 1 hour at 37° C. (Table 8). Post incubation, the cells were pelleted and washed 2 times using cold PBS+1% BSA. The supernatant and washes were combined and counted together as “unbound fraction” in a gamma counter. The cells were then resuspended in 300 μL of 1% PBS+1% BSA and counted in the gamma counter as “bound fraction”.

DLL3 on CT26.DLL3 cells = molecular target: T3, DLL3 on CT26.DLL3 cells; test: 177Lu-peptide bound to CT26.DLL3 cells, gamma counting; letter grade, key in paragraph 629
Procedure: as §1, §2

Row | Molecule | % Binding (DLL3 on SHP-77 cells) [%] | % Binding (DLL3 on CT26.DLL3 cells) [%] | further results
1 | CCC(CC)[C@H](NC(=O)[C@@H](NC(=O)[C@H](Cc1c[nH]c2ccc(F)cc12)NC(C)=O)[C@@H](C)O)C(=O)N[C@H]1CSSC[C@@H](C(=O)N[C@@H](Cc2c[nH]c3ncccc23)C(=O)N2C[C@H](F)C[C@H]2C(=O)N[C@H](CCCCNC(=O)CN2CCN(CC(=O)O)CCN(CC(=O)O)CCN(CC(=O)O)CC2)C(N)=O)NC(=O)[C@H](CC(=O)O)NC(=O)[C@H](Cc2cnc[nH]2)NC(=O)[C@H](Cc2ccc(C(F)(F)F)cc2)NC(=O)[C@H](CC(N)=O)NC(=O)[C@H](CC(N)=O)NC1=O [compound 146, Ac-(5Fluoro-W)-T-(Env)-C(3)-N-N-(4CF3-F)-H-D-C(3)-(7Aza-W)-(trans4Fluoro-P)-[D-Lys(DOTA)]-NH2] (Ac-[Trp(5-F)]T[Nva(3-Et)]CNN[Phe(4-CF3)]HDC[Trp(7-aza)][Pro(trans-4-F)][dK](DOTA)-NH2; disulfide 4-10) | – | – | Kd (human DLL3): < 1 nM; % Binding (SHP-77 cells): A (%≤25); kidney uptake (% IA/g) (SHP-77 tumors; kidney): C (0 < % IA/g ≤ 10 in kidney); tumor uptake (% IA/g) (SHP-77 tumors; tumor): A (0 < % IA/g ≤ 5 in tumor)
2 | CC[C@H](C)[C@H](NC(=O)[C@@H](NC(=O)[C@H](Cc1c[nH]c2ccccc12)NC(C)=O)[C@@H](C)O)C(=O)N[C@H]1CSCSC[C@@H](C(=O)N[C@@H](Cc2c[nH]c3ccccc23)C(=O)N2CCC[C@H]2C(=O)N[C@H](CCCCNC(=O)CN2CCN(CC(=O)O)CCN(CC(=O)O)CCN(CC(=O)O)CC2)C(N)=O)NC(=O)[C@H](CC(=O)O)NC(=O)[C@H](Cc2cnc[nH]2)NC(=O)[C@H](Cc2ccc3ccccc3c2)NC(=O)[C@H](CC(N)=O)NC(=O)[C@H](CC(N)=O)NC1=O [compound 165, Ac-WTI-C(1)-NN(2Nal)HD-C(1)-WP-[D-Lys(DOTA)]-NH2] (Ac-WTICNN[2Nal]HDCWP[dK](DOTA)-NH2; linker 4-10 via CH2) | – | – | Kd (human DLL3): < 1 nM; % Binding (SHP-77 cells): A (%≤25)
3 | CC[C@H](C)[C@H](NC(=O)[C@@H](NC(=O)[C@H](Cc1c[nH]c2ccccc12)NC(C)=O)[C@@H](C)O)C(=O)N[C@H]1CSSC[C@@H](C(=O)N[C@@H](Cc2c[nH]c3ccccc23)C(=O)N2CCC[C@H]2C(=O)N[C@@H](CCCCNC(=O)CN2CCN(CC(=O)O)CCN(CC(=O)O)CCN(CC(=O)O)CC2)C(N)=O)NC(=O)[C@H](CC(=O)O)NC(=O)[C@H](Cc2cnc[nH]2)NC(=O)[C@H](Cc2ccc3ccccc3c2)NC(=O)[C@H](CC(N)=O)NC(=O)[C@H](CC(N)=O)NC1=O [compound 166, Ac-W-T-I-C(3)-N-N-(2Nal)-H-D-C(3)-W-P-[L-Lys(DOTA)]-NH2] (Ac-WTICNN[2Nal]HDCWPK(DOTA)-NH2; disulfide 4-10) | – | – | Kd (human DLL3): < 1 nM; % Binding (SHP-77 cells): A (%≤25)
4 | Ac-[Trp(5-F)]T[Nva(3-Et)]CNN[Phe(4-CF3)]HDC[Trp(7-aza)][Pro(trans-4-F)][dK](DOTA)-NH2 (disulfide 4-10; also: 177Lu complexed in the DOTA chelator) [[177Lu]Lu-labelled Cpd No. 146] | < 25 | – | –
5 | Ac-WTIC[Ala(morpholin-4-yl)]N[2Nal]HDCWP[dK](DOTA)-NH2 (disulfide 4-10; also: 177Lu in the DOTA chelator, also called [177Lu]Lu-test peptide) [[177Lu]Lu-labelled Cpd No. 261] | – | ≤ 25 | –
6 | Ac-WTICNN[2Nal]HDCWP[dK](DOTA)-NH2 (disulfide 4-10; also: 177Lu in the DOTA chelator, also called [177Lu]Lu-test peptide) [[177Lu]Lu-labelled Cpd No. 75] | ≤ 25 | – | –
7 | Ac-WTICNN[2Nal]HNCWP[dK](DOTA)-NH2 (disulfide 4-10; also: 177Lu chelated in DOTA, also called [177Lu]Lu-test peptide) [[177Lu]Lu-labelled Cpd No. 211] | – | ≤ 25 | –
8 | Ac-WTICNN[2Nal]KDCWP[dK](DOTA)-NH2 (disulfide 4-10; also: 177Lu in the DOTA chelator, also called [177Lu]Lu-test peptide) [[177Lu]Lu-labelled Cpd No. 237] | – | ≤ 25 | –
9 | Ac-WTICNNWHDCWP[dK](DOTA)-NH2 (disulfide 4-10; also: 177Lu chelated in DOTA, also called [177Lu]Lu-test peptide) [[177Lu]Lu-labelled Cpd No. 23] | ≤ 25 | ≤ 25 | –
10 | Ac-WTICNN[2Nal]HDCWPK(DOTA)-NH2 (disulfide 4-10; also: 177Lu chelated in DOTA, also called [177Lu]Lu-test peptide) [[177Lu]Lu-labelled Cpd No. 166] | ≤ 25 | – | –
11 | Ac-WTICNN[2Nal]HDCWP[dK](DOTA)-NH2 (bridge 4-10; also: 177Lu chelated in DOTA, also called [177Lu]Lu-test peptide) [[177Lu]Lu-labelled Cpd No. 165] | ≤ 25 | – | –

Now from value to molecule, other results behind:

Row | % Binding (DLL3 on SHP-77 cells) [%] | % Binding (DLL3 on CT26.DLL3 cells) [%] | Molecule | further results
12 | – | ≤ 25 | Ac-WTICN[4Pal][2Nal]HDCWP[dK](DOTA)-NH2 (disulfide 4-10; also: 177Lu in the DOTA chelator, also called [177Lu]Lu-test peptide) [[177Lu]Lu-labelled Cpd No. 266] | –
13 | – | ≤ 25 | Ac-WTICN[Ala(piperidin-4-yl)][2Nal]HDCWP[dK](DOTA)-NH2 (disulfide 4-10; also: 177Lu in the DOTA chelator, also called [177Lu]Lu-test peptide) [[177Lu]Lu-labelled Cpd No. 267] | –
14 | – | ≤ 25 | Ac-WTIC[4Pal]N[2Nal]HDCWP[dK](DOTA)-NH2 (disulfide 4-10; also: 177Lu in the DOTA chelator, also called [177Lu]Lu-test peptide) [[177Lu]Lu-labelled Cpd No. 264] | –

Reference: US20250011368A1, “DLL3 TARGETING PEPTIDES AND CONSTRUCTS THEREOF” (MARIANA ONCOLOGY INC., priority 2023, published 2025)
